B1: CobB sirtuin of S. enterica (purified, homogeneous) (protein)
chain: MQSRRFHRLSRFRKNKRLLRERLRQRIFFRDRVVPEMMENPRVLVLTGAGISAESGIRTFRAADGLWEEHRVEDVATPEGFARNPGLVQTFYNARRQQLQQPEIQPNAAHLALAKLEEALGDRFLLVTQNIDNLHERAGNRNIIHMHGELLKVRCSQSGQILEWNGDVMPEDKCHCCQFPAPLRPHVVWFGEMPLGMDEIYMALSMADIFIAIGTSGHVYPAAGFVHEAKLHGAHTVELNLEPSQVGSEFEEKHYGPASQVVPEFVDKFLKGL

Legend:
[1] = target: Acetylated acetyl-CoA synthetase (Acs^Ac), Acs of S. enterica isolated from a cobB- strain (S. enterica) (UniProt Q8ZKF6); test: cell-based or functional assay
[2] = target: T1, Acetylated acetyl-CoA synthetase (Acs^Ac), Acs of S. enterica isolated from a cobB- strain
T1 chain: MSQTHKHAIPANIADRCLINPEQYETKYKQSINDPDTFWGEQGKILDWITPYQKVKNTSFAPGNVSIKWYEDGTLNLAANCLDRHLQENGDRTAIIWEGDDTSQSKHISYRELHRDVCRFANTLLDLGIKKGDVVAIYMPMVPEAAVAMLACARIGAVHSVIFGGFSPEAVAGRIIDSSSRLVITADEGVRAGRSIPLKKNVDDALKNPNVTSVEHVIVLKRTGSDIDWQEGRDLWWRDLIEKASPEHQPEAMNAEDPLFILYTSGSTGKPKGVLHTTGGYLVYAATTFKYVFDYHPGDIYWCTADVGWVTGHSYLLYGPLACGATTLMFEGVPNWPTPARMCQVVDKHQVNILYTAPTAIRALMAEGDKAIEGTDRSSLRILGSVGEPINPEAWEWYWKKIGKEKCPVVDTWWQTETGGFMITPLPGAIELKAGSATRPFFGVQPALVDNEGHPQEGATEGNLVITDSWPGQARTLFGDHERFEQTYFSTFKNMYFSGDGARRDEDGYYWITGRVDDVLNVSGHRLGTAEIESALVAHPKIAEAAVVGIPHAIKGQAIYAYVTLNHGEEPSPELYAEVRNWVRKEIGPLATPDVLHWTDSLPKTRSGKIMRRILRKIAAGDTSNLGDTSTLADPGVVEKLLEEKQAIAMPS

[3] = scale: pmoles of acetyl-CoA formed min^-1 mg of protein^-1

Row | Molecule | Acs Sp. Act. (purified Acs from CobB- host, plus BSA, CobB, NAD+) (nmoles of acetyl-CoA formed min^-1 mg^-1) [1] | Acs Sp. Act. (purified Acs from CobB- host, plus CobB, NAD+) (nmoles of acetyl-CoA formed min^-1 mg^-1) [1] | Acs Specific Activity (crude cell-free extract of Acs+ cobB- strain, plus 10 µg CobB + NAD+) [1, 3] | Acs Specific Activity (crude cell-free extract of Acs+ cobB- strain, plus 10 µg CobB) [1, 3] | reactivity of Acs with anti-acetyl-lysine antibody in a time-course immunoblot [2]
1 | CobB sirtuin of S. enterica (purified, homogeneous) (from UniProt P0A2F2 1-273) (enzyme) | 483 | 480 | 490 | 42 | 
2 | B1 |  |  |  |  | The decreased reactivity of Acs with the antibody was dependent on the presence of NAD^+ and CobB in a time-course experiment

— patent publication US7531337
